Experiment [1] deals with T1, wild type Stat3 (Homo sapiens, UniProt P40763).
T1 construct: made in house; host or cells: Sf9 insect cells (baculovirus, pFastBac1)
Description: Mirror resonance affinity assay (resonant mirror biosensor). Format: binding. The settings on record: for Kd: wild type Stat3 binding to G-CSFR phosphododecapeptides, ratio kdiss/kass, read-out: KD. On the procedure:
(§1) Kinetics experiments were performed using an lasys Auto+ resonant mirror biosensor (Affinity Sensor, Paramus, N.J.) (see Sadowski et. al, 1986). Briefly, two-welled cuvettes coated on the bottom of each well with biotin were purchased from Affinity Sensor and prepared for immobilization of biotinylated peptides by coating each surface with 0.04 mg/ml NeutrAvidin (Pierce) and washing with PBS-T (20 mM Na Phosphate, 0.05% Tween-20). Biotinylated peptide (5 μg) was added into each well—experimental peptide to one well and control peptide to the other—and change in arc seconds monitored simultaneously in both wells using the biosensor until stable followed by washing with PBS-T. Real-time binding of Stat3 was conducted at 25° C. at a stir speed of 70 for 10 min starting at the lowest concentration of Stat3. The wells were washed out with three changes of 60 μl PBS-T, and dissociation was allowed to proceed for 5 min. Each well bottom was regenerated by washing with […] of 100 mM formic acid for 2 min and equilibrated with PBS-T for the next round of association assay. Data were collected automatically and analyzed with the FASTplot and GraFit software (see Sheinerman et. al, 2003).
(§2) Mirror resonance affinity assay. Two cells of a biotin-coated cuvette pretreated with saturating amounts of NeutrAvidin. One well of the cuvette was pretreated with biotinylated phosphopeptide based on Y1068 (pY1068, left panel), while the other well was pretreated with biotinylated non-phosphorylated peptide Y1068 (Y1068, right panel) as a control for non-specific binding. Wild type or mutated Stat3 protein was added in the concentrations indicated to each of the two cells and mirror resonance measurements recorded continuously for 10 min as shown.
To obtain quantitative kinetic information about the binding of Stat3 to G-CSFR Y704 and Y744 including association rates (kass), disassociation rates (kdiss) and dissociation equilibrium constants (KD), real-time affinity measurements using a mirror resonance biosensor were performed. The biosensor exploits surface plasmon resonance to measure in real time the alteration in the angle of a laser light reflected from a surface upon which binding events are occurring. Biotinylated peptides were immobilized onto the bottom surface of cuvette wells pre-coated with NeutrAvidin. The interaction of peptides with Stat3 added at different concentrations was measured in real time as altered deflection of a laser light striking the bottom surface of the cuvette; the alterations in the deflection angle measured in arc seconds was analyzed with GraFit software. […] The slightly lower KD for Y704 vs. Y744 is attributable to a faster association rate of Stat3 binding to this phosphododecapeptide.

In experiment [2] the target is T2, Stat3-3M (Homo sapiens, UniProt P40763, E638L/Y640F/Y657F).
T2 construct: made in house; host or cells: Sf9 insect cells (baculovirus, pFastBac1)
T2 sequence (P40763 whole entry E638L/Y640F/Y657F): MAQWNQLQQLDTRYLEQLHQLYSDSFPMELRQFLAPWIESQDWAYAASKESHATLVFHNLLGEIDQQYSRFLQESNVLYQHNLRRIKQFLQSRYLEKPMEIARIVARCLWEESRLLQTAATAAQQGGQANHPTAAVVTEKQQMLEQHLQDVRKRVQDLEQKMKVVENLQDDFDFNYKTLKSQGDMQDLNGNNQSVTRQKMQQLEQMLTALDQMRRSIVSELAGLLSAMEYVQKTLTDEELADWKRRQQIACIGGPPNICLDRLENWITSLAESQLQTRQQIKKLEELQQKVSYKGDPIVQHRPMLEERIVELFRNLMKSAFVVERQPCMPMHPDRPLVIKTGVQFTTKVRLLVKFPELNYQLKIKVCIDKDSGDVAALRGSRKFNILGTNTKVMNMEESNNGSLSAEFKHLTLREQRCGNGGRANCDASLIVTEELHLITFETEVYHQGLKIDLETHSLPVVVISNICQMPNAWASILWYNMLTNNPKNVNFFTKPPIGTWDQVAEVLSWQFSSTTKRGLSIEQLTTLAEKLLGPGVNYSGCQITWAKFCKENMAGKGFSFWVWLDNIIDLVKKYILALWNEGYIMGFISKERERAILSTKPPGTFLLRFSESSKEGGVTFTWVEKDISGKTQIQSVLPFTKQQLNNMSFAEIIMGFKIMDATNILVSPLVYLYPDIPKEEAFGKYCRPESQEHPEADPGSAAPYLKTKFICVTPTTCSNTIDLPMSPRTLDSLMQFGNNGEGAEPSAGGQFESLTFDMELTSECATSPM
Described as above. Format: binding. The conditions noted are these: Stat3-3M binding to G-CSFR phosphododecapeptides; ratio kdiss/kass; read-out: KD. On the procedure:
as §1, §2

The target of experiment [3] is pY1068 phosphododecapeptide (EGFR). Description: mirror resonance biosensor, biotinylated peptide on NeutrAvidin, Stat3 in solution.
The target of experiment [4] is pY704 phosphododecapeptide (G-CSFR) (human). Described as above.
Experiment [5] addresses pY744 phosphododecapeptide (G-CSFR) (human). The description is as above.
Experiment [6] addresses T3, Stat3-3M (human, UniProt P40763 1-770, limits assumed). Description: peptide pull-down: biotinylated peptide on NeutrAvidin agarose, purified His-tagged Stat3 protein added, bound protein immunoblotted with Stat3 mAb.
Experiment [7] deals with T4, Stat3-E638P (human, UniProt P40763 1-770).
T4 construct: Produced in Sf9 cells; CD spectrum essentially identical to wild type
T4 sequence (P40763 other isoform, or with tags, fused parts or gaps E638P E638P limits assumed): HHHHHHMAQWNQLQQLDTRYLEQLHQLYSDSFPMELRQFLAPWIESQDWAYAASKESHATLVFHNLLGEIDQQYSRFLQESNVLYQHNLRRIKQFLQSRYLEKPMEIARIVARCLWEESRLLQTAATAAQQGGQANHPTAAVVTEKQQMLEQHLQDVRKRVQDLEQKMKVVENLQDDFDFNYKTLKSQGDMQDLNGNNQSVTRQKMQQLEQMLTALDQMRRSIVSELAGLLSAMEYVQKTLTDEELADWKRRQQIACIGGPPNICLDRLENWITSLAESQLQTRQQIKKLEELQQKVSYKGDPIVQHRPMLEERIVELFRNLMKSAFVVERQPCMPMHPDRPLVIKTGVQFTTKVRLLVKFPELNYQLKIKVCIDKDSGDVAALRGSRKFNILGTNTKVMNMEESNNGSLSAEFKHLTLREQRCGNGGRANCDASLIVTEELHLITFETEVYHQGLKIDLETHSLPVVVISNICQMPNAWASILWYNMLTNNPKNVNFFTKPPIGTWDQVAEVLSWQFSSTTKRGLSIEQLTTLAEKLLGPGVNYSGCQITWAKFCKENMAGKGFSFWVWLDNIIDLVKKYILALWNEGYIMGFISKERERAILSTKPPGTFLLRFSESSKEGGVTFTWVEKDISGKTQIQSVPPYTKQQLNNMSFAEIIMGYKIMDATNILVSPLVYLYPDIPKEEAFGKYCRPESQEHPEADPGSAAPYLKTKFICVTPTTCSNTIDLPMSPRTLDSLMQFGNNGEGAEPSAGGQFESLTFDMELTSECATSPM
The description is as above.

In experiment [8] the target is T5, wild type Stat3 (recombinant human Stat3alpha with N-terminal 6-histidine tag) (human, UniProt P40763 1-770).
T5 construct: Expressed in Sf9 cells and purified on Ni-NTA for peptide assays; expressed from pcDNA3.1 in 293T cells for the G-CSFR co-immunoprecipitation; also called WT; purified Stat3
T5 sequence (P40763 other isoform, or with tags, fused parts or gaps limits assumed): as the sequence (P40763 other isoform, or with tags, fused parts or gaps E638P E638P limits assumed) above, with P644E counted along it
The experiment is described as above.

For experiment [9], the target named is T4, Stat3-E638P. In words: mirror resonance biosensor: biotinylated peptide on NeutrAvidin-coated cuvette, Stat3 protein in solution, association followed for about 10 min. On the procedure: as §1, with “Biotinylated peptide (5 μg) was added into each well—experimental peptide to one well and control peptide to the other—and change in arc seconds monitored simultaneously in both wells using the biosensor until stable followed by washing with PBS-T. Real-time binding of Stat3 was conducted at 25° C. at a stir speed of 70 for 10 min starting at the lowest concentration of Stat3.” left out
(§3) Mirror resonance affinity assay. Two cells of a biotin-coated cuvette pretreated with saturating amounts of NeutrAvidin. One well of the cuvette was pretreated with biotinylated phosphopeptide based on Y1068 (pY1068, left panel), while the other well was pretreated with biotinylated non-phosphorylated peptide Y1068 (Y1068, right panel) as a control for non-specific binding.

For experiment [10], the target named is T5, wild type Stat3 (recombinant human …). Description: peptide pull-down: biotinylated peptide on NeutrAvidin agarose, purified His-tagged Stat3 protein added, bound protein immunoblotted with Stat3 mAb. This is another data set of the same source. Background: A western blot detects proteins with antibodies after separation by electrophoresis.
Experiment [11] has as its target T4, Stat3-E638P. The description is as above. This is another data set of the same source.
Experiment [12] deals with T5, wild type Stat3 (recombinant human …). In words: mirror resonance biosensor: biotinylated peptide on NeutrAvidin-coated cuvette, Stat3 protein in solution, association followed for about 10 min. How it is done: as §1, with “Biotinylated peptide (5 μg) was added into each well—experimental peptide to one well and control peptide to the other—and change in arc seconds monitored simultaneously in both wells using the biosensor until stable followed by washing with PBS-T. Real-time binding of Stat3 was conducted at 25° C. at a stir speed of 70 for 10 min starting at the lowest concentration of Stat3.” left out
as §3

Experiment [13] addresses Stat3-6M (human, UniProt P40763 1-770, limits assumed). Description: peptide pull-down: biotinylated peptide on NeutrAvidin agarose, purified His-tagged Stat3 protein added, bound protein immunoblotted with Stat3 mAb.
Experiment [14] has as its target Stat3-4M (human, UniProt P40763 1-770, limits assumed). The description is as above.
Experiment [15] addresses T3, Stat3-3M. Described as above. The source holds these as a separate data set.

Read-outs that look alike come from different tables or passages of the source. Non-standard residues stand in square brackets, D forms with d. Residues, ends and D or L forms follow the SMILES beside them. No end group written: not given here. *: point of attachment. d‑Biotin‑LC = N-terminal biotin (d-Biotin-LC), O=C(CCCC[C@@H]1SC[C@@H]2NC(=O)N[C@@H]21)NCCCCCC(=O)*; Biotin = O=C1N[C@H]2[C@H](CS[C@H]2CCCCC(=O)*)N1; pY = N[C@@H](Cc1ccc(OP(=O)(O)O)cc1)C(=O)O; Ahx = NCCCCCC(=O)O

These results are taken from patent US20060148715A1, “Structural requirements for STAT3 binding and recruitment to phosphotyrosine ligands” (BAYLOR COLLEGE OF MEDICINE, priority 2004, published 2006).

As usually defined, the Kd is the equilibrium constant for the complex coming apart.

T1 sequence (P40763 whole entry): as the sequence (P40763 whole entry E638L/Y640F/Y657F) above, with L638E, F640Y, F657Y counted along it
T3 sequence (P40763 other isoform, or with tags, fused parts or gaps limits assumed): as the sequence (P40763 other isoform, or with tags, fused parts or gaps E638P E638P limits assumed) above, with P644L, Y646F, Y663F counted along it
Chain of Stat3-6M (P40763 other isoform, or with tags, fused parts or gaps limits assumed): as the sequence (P40763 other isoform, or with tags, fused parts or gaps E638P E638P limits assumed) above, with P644L, Y646F, Y663F, C693A, S697A, Q698L counted along it
Chain of Stat3-4M (P40763 other isoform, or with tags, fused parts or gaps limits assumed): as the sequence (P40763 other isoform, or with tags, fused parts or gaps E638P E638P limits assumed) above, with P644E, Y663F, C693A, S697A, Q698L counted along it

For “LPVPE(pY)INRSVP (LPVPE[pY]INRSVP) [Y1068 Q-to-R PDP]”, the “Stat3 binding in real-time resonance mirror affinity assay” value in [1] (wild type Stat3) is reported as “undetectable”.
In the case of `CC(C)C[C@H](NC(=O)[C@H](Cc1ccc(OP(=O)(O)O)cc1)NC(=O)[C@H](Cc1c[nH]cn1)NC(=O)CNC(=O)[C@@H]1CCCN1C(=O)CNC(=O)[C@@H]1CCCN1C(=O)CCCCCNC(=O)CCCC[C@@H]1SC[C@@H]2NC(=O)N[C@@H]21)C(=O)N[C@@H](CCCNC(=N)N)C(=O)N[C@@H](CS)C(=O)N[C@@H](CC(=O)O)C(=O)N[C@@H](CO)C(=O)N[C@H](C(=O)O)[C@@H](C)O` [compound 744, PGPGHpYLRCDST] ({Biotin-Ahx}-PGPGH[pY]LRCDST-OH), the figures for the dissociation constant Kd in experiment [2] and in [1] were 1060 ± 150 nM and 950 nM, respectively.
In the case of “wild type Stat3 (recombinant human Stat3alpha with N-terminal 6-histidine tag) (from UniProt P40763 1-770)”, the results for the Kd in [3], in experiment [4] and in experiment [5] were 223 nM, 703 nM and 950 nM, respectively.
As for `CC(C)C[C@H](NC(=O)[C@@H](NC(=O)[C@H](Cc1ccc(OP(=O)(O)O)cc1)NC(=O)[C@@H](NC(=O)[C@H](CCC(N)=O)NC(=O)[C@@H](NC(=O)[C@H](CC(C)C)NC(=O)[C@@H](NC(=O)CCCCCNC(=O)CCCC[C@@H]1SC[C@@H]2NC(=O)N[C@@H]21)[C@@H](C)O)C(C)C)[C@@H](C)O)C(C)C)C(=O)N[C@@H](CCC(N)=O)C(=O)NCC(=O)N[C@@H](CC(=O)O)C(=O)N1CCC[C@H]1C(=O)O` [compound 704, TLVQTpYVLQGDP] ({Biotin-Ahx}-TLVQT[pY]VLQGDP-OH), the equilibrium dissociation constant (Kd) in [2] was 1210 nM; in experiment [1] it was 703 nM.

B1: Y704 non-phosphorylated dodecapeptide (G-CSFR) (peptide)
peptide: {d‑Biotin‑LC}-TLVQTYVLQGDP
Consider B1, for which the binding result in [6], in experiment [7] and in [8] was “no binding” in each case.

B2: pY704 phosphododecapeptide (G-CSFR) (peptide)
peptide: {d‑Biotin‑LC}-TLVQT[pY]VLQGDP
On to B2, for which, in experiment [7], the binding result was “no binding”.

B3: pY1068 phosphododecapeptide (EGFR) (peptide)
peptide: LPVPEXINQSVP
modifications: phosphotyrosine at position 6 (EGFR Y1068); N-terminal biotin (d-Biotin-LC)
notes: also called Y1068 PDP; Y1068 phosphopeptide
Take B3: the binding result in experiment [9] is reported as “no binding (tested: 600 nM)”.

B4: pY1068-R phosphododecapeptide (EGFR Y1068, +3 Q to R) (peptide)
peptide: {d‑Biotin‑LC}-LPVPE[pY]INRSVP
notes: also called Y1068 Q-to-R PDP
For the molecule B4, the binding result in experiment [10] and in experiment [11] was “no binding” each time.

B5: pY729 phosphododecapeptide (G-CSFR) (peptide)
peptide: {d‑Biotin‑LC}-SDQVL[pY]GQLLGS
Take B5: the binding result in experiment [7] and in experiment [8] was “no binding” each time.

B6: pY764 phosphododecapeptide (G-CSFR) (peptide)
peptide: {d‑Biotin‑LC}-PSPLS[pY]ENLTFQ
Consider B6, for which the binding result in experiment [7] and in [8] was “no binding” throughout.

B7: pY1086 phosphododecapeptide (EGFR) (peptide)
peptide: {d‑Biotin‑LC}-VQNPV[pY]HNQPLN
notes: also called Y1086 PDP; Y1086 phosphopeptide
In the case of B7, in [11], the binding result was “no binding”.

B8: Y1068 non-phosphorylated dodecapeptide (EGFR) (peptide)
peptide: {d‑Biotin‑LC}-LPVPEYINQSVP
notes: also called unphosphorylated Y1068 dodecapeptide
Turning to B8, the binding result in experiment [9] is on record as “no binding (tested: 600 nM)”; in experiment [12] it was “no binding”; in [13], “no binding”; in [14] it was “no binding”; in [15], “no binding”.

B9: pY992 (peptide)
peptide: {d‑Biotin‑LC}-TDSNF[pY]RALMDE
notes: EGFR-based control phosphopeptide; also called pY992 phosphododecapeptide (EGFR)
On to B9, for which, in [11], the binding result is listed as “no binding”.

B10: pY1068-L phosphododecapeptide (EGFR Y1068, +3 Q to L) (peptide)
peptide: {d‑Biotin‑LC}-LPVPE[pY]INLSVP
As for B10, the binding result in experiment [10] and in experiment [11] was “no binding” throughout.

B11: pY744 phosphododecapeptide (G-CSFR) (peptide)
peptide: {d‑Biotin‑LC}-PGPGH[pY]LRCDST
With B11, the binding result in experiment [7] is listed as “no binding”.

B12: pY1068-M phosphododecapeptide (EGFR Y1068, +3 Q to M) (peptide)
peptide: {d‑Biotin‑LC}-LPVPE[pY]INMSVP
Turning to B12, the binding result in experiment [10] and in experiment [11] was “no binding” throughout.

B13: pY1068-E phosphododecapeptide (EGFR Y1068, +3 Q to E) (peptide)
peptide: {d‑Biotin‑LC}-LPVPE[pY]INESVP
Consider B13, for which the binding result in [10] and in [11] was “no binding” throughout.

B14: pY1148 (peptide)
peptide: {d‑Biotin‑LC}-VGNPE[pY]LNTVQP
notes: EGFR-based phosphopeptide; also called pY1148 phosphododecapeptide (EGFR)
Consider B14, for which the binding result in [11] is on record as “no binding”.

B15: pY1173 (peptide)
peptide: {d‑Biotin‑LC}-LDNPD[pY]QQDFFP
notes: EGFR-based phosphopeptide; also called pY1173 phosphododecapeptide (EGFR)
With B15, in experiment [11], the binding result is listed as “no binding”.
